Patent CN116507641A (XINSHI BIOPHARMACEUTICAL CO LTD, dated 2023)
Where a chain is given by its changes, count along the chain named.

T1: 食蟹猴结合素-4 (cynomolgus Nectin-4) (cynomolgus monkey, UniProt Q96NY8 32-510 (human entry))
T1 construct: Transiently expressed on 293T cells; also called XP_005541277.1
T1 chain: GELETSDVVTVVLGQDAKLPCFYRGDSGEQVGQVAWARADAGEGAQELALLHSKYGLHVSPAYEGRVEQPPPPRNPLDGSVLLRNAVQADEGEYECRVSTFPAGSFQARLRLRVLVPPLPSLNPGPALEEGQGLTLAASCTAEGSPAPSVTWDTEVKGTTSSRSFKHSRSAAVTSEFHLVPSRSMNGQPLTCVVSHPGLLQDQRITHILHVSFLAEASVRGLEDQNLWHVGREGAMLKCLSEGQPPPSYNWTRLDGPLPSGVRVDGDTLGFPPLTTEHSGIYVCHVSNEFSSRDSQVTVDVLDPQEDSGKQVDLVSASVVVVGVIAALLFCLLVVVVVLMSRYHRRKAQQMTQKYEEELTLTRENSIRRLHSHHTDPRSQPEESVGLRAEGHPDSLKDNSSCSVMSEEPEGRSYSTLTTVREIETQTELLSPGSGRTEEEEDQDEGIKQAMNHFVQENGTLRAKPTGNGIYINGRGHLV

T2: 大鼠结合素-4 (rat Nectin-4) (rat, UniProt Q8R007 31-508 (mouse entry))
T2 construct: Transiently expressed on 293T cells; also called NP_001102546.1
T2 chain: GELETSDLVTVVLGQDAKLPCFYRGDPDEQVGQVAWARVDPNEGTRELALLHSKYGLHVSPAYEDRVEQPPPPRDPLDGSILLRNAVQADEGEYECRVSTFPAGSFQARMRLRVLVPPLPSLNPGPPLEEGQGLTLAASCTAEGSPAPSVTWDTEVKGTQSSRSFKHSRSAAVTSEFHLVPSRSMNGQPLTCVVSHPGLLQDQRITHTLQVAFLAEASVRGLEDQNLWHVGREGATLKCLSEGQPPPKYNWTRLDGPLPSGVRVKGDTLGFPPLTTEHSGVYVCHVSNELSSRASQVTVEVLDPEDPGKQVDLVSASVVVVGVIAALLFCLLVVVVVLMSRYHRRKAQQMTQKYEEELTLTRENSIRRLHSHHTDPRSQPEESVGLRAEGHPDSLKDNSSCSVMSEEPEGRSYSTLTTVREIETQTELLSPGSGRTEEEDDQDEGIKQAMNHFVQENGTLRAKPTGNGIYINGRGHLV

T3: 小鼠结合素-4 (mouse Nectin-4) (mouse, UniProt Q8R007 31-508)
T3 construct: Transiently expressed on 293T cells; also called NP_082169.2
T3 sequence: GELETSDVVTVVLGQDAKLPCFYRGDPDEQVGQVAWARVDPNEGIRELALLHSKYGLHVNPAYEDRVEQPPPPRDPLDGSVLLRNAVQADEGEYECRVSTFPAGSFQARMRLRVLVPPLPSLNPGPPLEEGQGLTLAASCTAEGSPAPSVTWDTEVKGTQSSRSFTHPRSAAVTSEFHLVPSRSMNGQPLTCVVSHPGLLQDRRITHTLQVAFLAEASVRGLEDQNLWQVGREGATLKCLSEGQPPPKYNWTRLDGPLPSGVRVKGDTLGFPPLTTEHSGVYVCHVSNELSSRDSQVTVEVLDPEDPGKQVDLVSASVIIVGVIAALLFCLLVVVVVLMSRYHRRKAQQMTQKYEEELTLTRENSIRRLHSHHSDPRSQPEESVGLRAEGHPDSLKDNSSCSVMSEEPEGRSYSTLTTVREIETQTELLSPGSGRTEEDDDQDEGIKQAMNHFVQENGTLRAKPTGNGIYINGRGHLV

T4: 人结合素-2 (recombinant human Nectin-2; ACROBiosystems PV2-H52E2) (human, UniProt Q92692 32-360)
T4 construct: extracellular domain
T4 sequence (looked up): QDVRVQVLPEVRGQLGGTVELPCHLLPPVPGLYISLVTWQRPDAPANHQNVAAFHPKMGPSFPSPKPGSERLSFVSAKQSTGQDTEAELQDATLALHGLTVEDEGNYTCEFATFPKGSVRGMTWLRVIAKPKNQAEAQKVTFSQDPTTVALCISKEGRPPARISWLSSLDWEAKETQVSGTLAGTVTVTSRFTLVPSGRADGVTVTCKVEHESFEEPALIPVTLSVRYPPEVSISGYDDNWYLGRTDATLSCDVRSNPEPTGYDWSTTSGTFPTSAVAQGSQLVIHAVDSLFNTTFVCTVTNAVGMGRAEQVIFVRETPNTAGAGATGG

T5: 人结合素-4变体 ΔV结构域 (human Nectin-4 lacking amino acids 32-147) (human, UniProt Q96NY8 148-510)
T5 construct: Transiently expressed on 293T cells; also called 缺少Ig样V型结构域的变体
T5 sequence: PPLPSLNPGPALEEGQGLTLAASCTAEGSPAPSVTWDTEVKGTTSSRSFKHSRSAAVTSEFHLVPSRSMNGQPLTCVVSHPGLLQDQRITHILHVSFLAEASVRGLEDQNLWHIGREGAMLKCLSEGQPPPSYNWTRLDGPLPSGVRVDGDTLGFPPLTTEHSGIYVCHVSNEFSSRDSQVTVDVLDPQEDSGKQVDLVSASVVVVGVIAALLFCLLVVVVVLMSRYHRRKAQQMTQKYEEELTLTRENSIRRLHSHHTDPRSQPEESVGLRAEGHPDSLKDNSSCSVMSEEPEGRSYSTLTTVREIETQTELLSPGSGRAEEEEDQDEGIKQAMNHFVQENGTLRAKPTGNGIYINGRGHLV

T6: 人重组结合素-4蛋白 (recombinant human Nectin-4, extracellular domain) (human, UniProt Q96NY8 32-349)
T6 construct: Protein coated on the ELISA plate; May be the same protein as the Nectin-4-His used in SPR; also called 重组结合素-4(细胞外结构域); 人结合素-4蛋白
T6 sequence: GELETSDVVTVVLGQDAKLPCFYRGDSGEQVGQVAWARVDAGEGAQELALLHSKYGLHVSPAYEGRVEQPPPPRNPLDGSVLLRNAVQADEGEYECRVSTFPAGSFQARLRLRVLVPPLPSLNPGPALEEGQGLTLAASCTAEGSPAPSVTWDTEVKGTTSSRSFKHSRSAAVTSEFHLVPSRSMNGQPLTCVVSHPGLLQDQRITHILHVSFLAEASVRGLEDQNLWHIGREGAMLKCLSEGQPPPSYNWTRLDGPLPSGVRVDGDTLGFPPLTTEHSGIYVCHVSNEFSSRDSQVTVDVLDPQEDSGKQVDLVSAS

T7: 重组人结合素4-His蛋白 (recombinant human Nectin-4-His) (human, UniProt Q96NY8 32-349)
T7 construct: Analyte in SPR; also called 人重组结合素-4; not shown: His tag
T7 sequence: T6 sequence

B1: N4_mAb 3 (antibody, V domains shown)
VH: EVQLQQSGAELVKPGASVKLSCTVSGFNIKDTYMHWVKQRPEQGLEWIGRIDPANGNTKYDPKFQGKATIIADKASNTAYLQLSSLTSEDAAVYYCAHYYGSSYFAMDCWGQGTSVTVSS
VL: DIVMTQSHKFMSTSVGDRVSITCKASQDVSTAVAWYQQKPGQSPKLLIYWASTRHTGVPDRFTGSGSGTDYTLTISSVQTEDLALYYCQQHYSTPLTFGAGTKLELK
B2: N4_mAb 5 (antibody, V domains shown)
VH: EVQLQQSGPDLVKPGASVKISCKASGYSFTGHYMHWVKQSHGKSLEWIGRVNPNNGGSSYNQKFKDKAILTVDKSSTTAYMELRSLTSEDSAVYYCARDPLGGSYGFAYWGQGTLVTVSA
VL: DIVLTQSPASLAVSLGQRATISCRASQSVTTSSYSYMHWYQQKPGQPPKLLIKYASNLESGVPARFSGSGSGTDFTLNIHPVEEEDTATYYCQHSWEIPYTFGGGTKLEMK
B3: N4_mAb 2 (antibody, V domains shown)
VH: QVQLKQSGPNLVQPSQSLSITCTVSGFSLTTYGAHWVRQSPGKGLEWLGVIWRGGSTDYNAAFMSRLSITKDNSKSQVFFKMNSLQADDTAIYYCAKIGYDGYAMDNWGQGTSVTVSS
VL: DFQVTQSPASLSASVGETVTITCRTSENIHNYLAWYQQKQGKSPQLLVYNAKTLADGVPSRFSGSGSGTQYSLKINSLQPEDFGTYYCQHFWSSPWTFGGGTKLEIK
B4: N4_mAb 4 (antibody, V domains shown)
VH: DVQLQESGPDLVKPSQSLSLTCTVTGYSITSAYNWHWIRQFPGNKLEWMGYIHYSGRTNYNPSLKSRISITRDTSKNQFFLQLNSLTTEDTATYYCARWITTATGWYLDVWGAGTTVTVSS
VL: not shown
B5: N4_mAb 1 (antibody, V domains shown)
VH: QVQLKQSGPGLVQPSQSLSITCTVSGFSLTNYGVNWVRQPPGKGLEWLGVIWSGGSTDYNAAFISRLSISKDISKSQVFFKMNSLQADDTAKYYCAREGYDGYAMDYWGQGTSVTVSS
VL: DIQMTQSPASLSVSVGETVTITCRASENIFSSLAWYQQKQGKSPQLLVYGATNLADGVPSRFSGSGSGTQYSLKINSLQSEDFGTYWCQHFWGNPWTFGGGTKLEIK
B6: N4_mAb 6 (antibody, V domains shown)
VH: QVQLQQSGPELVKPGASVRISCKASGYTFTTYYIHWVKQRPGQGLEWIGWIYPGNVNTKYTENFKDKATLTADKSSSTAYMQLSSLTSEDSAVYFCARGLYYFDFWGQGTTLTVSS
VL: SIVMTQTPKFLLVSAGDRVTITCKASQSVNNDVAWYQQKPGQSPKLLIYYASNRDTGVPDRFTGSGFGTDFTFTISSVQAEDLAVYFCQQDYSSPYTFGGGTKLEIK
notes: Murine variable regions
B7: N4_mAb 7 (antibody, V domains shown)
VH: QVQLQQSGPELVKPGASVKMSCKASGYTFTTYYIHWVKQRPGQGLEWIGWIYPGNAGIKSNEKFKGKTTLTADKSSSTAYMLLSSLTSEDSAIYFCARGVYFFDYWGQGTTLTVSS
VL: B6 VL with A34S, Y36F, D55Y, T63S, F67Y, S76T, S77T
notes: Murine variable regions
B8: N4_mAb 8 (antibody, V domains shown)
VH: B6 VH with E10V, T31S, T61N, K65R, A79S, L100I, F105Y
VL: B6 VL with S1I, Q38E, F67Y, S77T, Q89H, Y96F, G100S
notes: Murine variable regions

Experiments:
[1] = target: T1, 食蟹猴结合素-4 (cynomolgus Nectin-4); assay: flow cytometry on transiently transfected 293T cells; +++ = EC50 below 5nM
大鼠结合素-4 (rat Nectin-4) [2] = target: T2, 大鼠结合素-4 (rat Nectin-4); assay: flow cytometry on transiently transfected 293T cells; + = EC50 25nM to 133nM
大鼠结合素-4 (rat Nectin-4) [3] = target: T2, 大鼠结合素-4 (rat Nectin-4); assay: flow cytometry on transiently transfected 293T cells; +++ = EC50 below 5nM
小鼠结合素-4 (mouse Nectin-4) [4] = target: T3, 小鼠结合素-4 (mouse Nectin-4); assay: flow cytometry on transiently transfected 293T cells; + = EC50 25nM to 133nM
大鼠结合素-4 (rat Nectin-4) [5] = target: T2, 大鼠结合素-4 (rat Nectin-4); assay: flow cytometry on transiently transfected 293T cells; ++ = EC50 5nM to 25nM
小鼠结合素-4 (mouse Nectin-4) [6] = target: T3, 小鼠结合素-4 (mouse Nectin-4); assay: as above
[7] = target: T4, 人结合素-2 (recombinant human Nectin-2; …); assay: ELISA or Gator binding assay
[8] = target: T5, 人结合素-4变体 ΔV结构域 (human Nectin-4 lacking …); assay: flow cytometry on transiently transfected 293T cells
[9] = target: T6, 人重组结合素-4蛋白 (recombinant human Nectin-4, …); assay: ELISA, recombinant human Nectin-4 coated on plate
[10] = target: T7, 重组人结合素4-His蛋白 (recombinant human …); assay: SPR (BIAcore 3000), antibody captured by anti-human IgG on CM5, Nectin-4-His as analyte, 1:1 binding with mass transfer

| Binder | EC50 [1] [nM] | EC50 (大鼠结合素-4 (rat Nectin-4) [2]) [nM] | EC50 (大鼠结合素-4 (rat Nectin-4) [3]) [nM] | EC50 (小鼠结合素-4 (mouse Nectin-4) [4]) [nM] | EC50 (大鼠结合素-4 (rat Nectin-4) [5]) [nM] | EC50 (小鼠结合素-4 (mouse Nectin-4) [6]) [nM] | binding result [7] | binding result [8] | EC50 [9] [nM] | Kd [10] [nM] |
| --- | --- | --- | --- | --- | --- | --- | --- | --- | --- | --- |
| B1 | < 5 | 25 to 133 |  |  |  |  |  |  |  |  |
| B2 | < 5 |  | < 5 | 25 to 133 |  |  |  |  |  |  |
| B3 | < 5 |  |  |  | 5 to 25 | 5 to 25 |  |  |  |  |
| B4 | < 5 | 25 to 133 |  |  |  |  |  |  |  |  |
| B5 | < 5 |  |  |  |  |  |  |  |  |  |
| B6 | < 5 |  | < 5 |  |  | 5 to 25 | no binding | no binding (tested: 最高测试的抗体浓度(133nM)) | 0.03 | 0.392 |
| B7 | < 5 |  | < 5 |  |  | 5 to 25 | no binding | no binding (tested: 最高测试的抗体浓度(133nM)) | 0.04 | 0.39 |
| B8 | < 5 |  | < 5 |  |  | 5 to 25 | no binding | no binding (tested: 最高测试的抗体浓度(133nM)) | 0.14 | 0.375 |
